Test results as given in patent US5750344A, “Method for selection of biologically active peptide sequences” (priority 1995, dated 1998).

Assays:
[1] = biological target: T1, urokinase plasminogen activator receptor (uPAR) (Homo sapiens, UniProt Q03405); experiment: Binding of individual phage clones to Sf9 cells expressing fluPAR (% recovery); conditions: for % Recovery uPAR: phage clone displaying the peptide, Sf9 cells expressing full length uPAR (fluPAR); for Specificity (uPAR/SPR): ratio of % recovery on uPAR Sf9 cells to % recovery on SPR Sf9 cells
T1 construct: 10^6 Sf9 cells expressing full length uPAR ("fluPAR", day 2 post infection); expressed in transfected cells; host or cells: Sf9 insect cells (baculovirus-infected)
T1 sequence (Q03405 23-335, species assumed): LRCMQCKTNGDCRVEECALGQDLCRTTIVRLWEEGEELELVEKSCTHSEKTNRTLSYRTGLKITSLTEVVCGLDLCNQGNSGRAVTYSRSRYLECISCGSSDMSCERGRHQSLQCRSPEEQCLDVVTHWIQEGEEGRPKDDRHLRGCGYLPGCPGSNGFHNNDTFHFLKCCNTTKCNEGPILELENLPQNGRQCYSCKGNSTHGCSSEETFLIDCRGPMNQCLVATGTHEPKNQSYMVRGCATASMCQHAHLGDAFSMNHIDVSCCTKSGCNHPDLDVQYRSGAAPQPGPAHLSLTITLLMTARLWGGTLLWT
Protocol: (§1) 1.) 15mer phage (2.5×10^10) prepared as described above were selected by coincubation with 10^6 Sf9 cells expressing full length uPAR ("fluPAR", day 2 post infection) at room temperature for 60 minutes in Grace's medium with 2% nonfat milk. Binding phage were eluted with 6M urea (pH 2.2), the pH neutralized by adding 2M Tris-HCl, and assayed. The yield of binding phage was 0.0013% (3.3×10^5 pfu). The phage were amplified on solid agar plates as plaques, eluted with Tris-buffered saline, and precipitated with polyethylene glycol.
(§2) 3.) The phage selected in round 2 were reselected on Sf9 cells expressing fluPAR (day 2 post-infection) as described for round 1 (2.8×10^10 phage on 10^6 Sf9 cells). The yield of binding phage from this round was 5.40% (1.5×10^9 pfu), indicating a substantial enrichment in binding phage. Phage from the urea eluate were cloned, and the DNA isolated and sequenced. Binding by individual phage clones was assayed against Sf9 cells expressing fluPAR, and Sf9 cells expressing substance P receptor (as a control).

substance P receptor = biological target: T2, substance P receptor (Homo sapiens, UniProt P25103); experiment: Binding of individual phage clones to Sf9 cells expressing substance P receptor (control); conditions: phage clone displaying the peptide
T2 construct: expressed in transfected cells; host or cells: Sf9 insect cells
T2 sequence (P25103 whole entry, species assumed): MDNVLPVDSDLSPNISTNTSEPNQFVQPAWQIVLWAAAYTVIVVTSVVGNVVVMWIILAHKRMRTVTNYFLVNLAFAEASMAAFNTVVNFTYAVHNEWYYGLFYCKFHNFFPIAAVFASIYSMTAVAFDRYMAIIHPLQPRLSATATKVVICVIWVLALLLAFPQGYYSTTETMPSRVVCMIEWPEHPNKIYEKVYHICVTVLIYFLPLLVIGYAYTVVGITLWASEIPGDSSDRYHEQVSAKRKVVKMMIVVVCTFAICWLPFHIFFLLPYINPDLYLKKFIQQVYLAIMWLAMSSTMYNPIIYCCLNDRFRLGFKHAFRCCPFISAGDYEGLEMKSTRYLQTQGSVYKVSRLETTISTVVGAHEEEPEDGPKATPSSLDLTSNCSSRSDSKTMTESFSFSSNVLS
Protocol: as §1, §2

| Sequence | % Recovery uPAR [1] [%] | Specificity (uPAR/SPR) [1] | % Recovery SPR (substance P receptor) [%] |
| --- | --- | --- | --- |
| AECLNGGTAVSNKYFSNIHWCN (displayed on phage) [reference compound] | 6.8 | 850 | 0.008 |
| AEMHRSLWEWYVPNQSA (displayed on phage) | 4.2 | 105 | 0.040 |
| AEPALLNWSFFFNPGLH (displayed on phage) | 4.7 | 47 | 0.100 |
| AEPLDLWSLYSLPPLAM (displayed on phage) | 6.0 | 63 | 0.095 |
| AEPMPHSLNFSQYLWYT (displayed on phage) | 2.2 | 28 | 0.080 |
| AESLPTLTSILWGKESV (displayed on phage) | 0.5 | 23 | 0.022 |
| AESQTGTLNTLFWNTLR (displayed on phage) | 2.8 | 350 | 0.008 |
| AESSLWRIFSPSALMMS (displayed on phage) | 3.5 | 50 | 0.070 |
| AESSLWTRYAWPSMPSY (displayed on phage) | 12.1 | 47 | 0.260 |
| AEWHPGLSFGSYLWSKT (displayed on phage) | 5.7 | 168 | 0.034 |
